US20230143604A1, “QW DOSING OF GIP RECEPTOR AGONIST PEPTIDE COMPOUNDS AND USES THEREOF” (TAKEDA PHARMACEUTICAL COMPANY LIMITED, priority 2020, published 2023)
Starred links: 1 amine or outer side, 2 acyl side, 3 side chain; linkers in the order of their positions; H or OH if unused. Non-standard residues stand in square brackets, D forms with d. Groups on a side chain read outwards from the residue. No end group written: not given here. *: point of attachment. C18 diacid = O=C(O)CCCCCCCCCCCCCCCCC(=O)*; C17 diacid = O=C(O)CCCCCCCCCCCCCCCC(=O)*; γGlu = O=C(O)[C@H](CCC(=O)[*:2])N[*:1]; NMeY = CN[C@@H](Cc1ccc(O)cc1)C(=O)O; AEEA = NCCOCCOCC(=O)O; Aib = CC(C)(N)C(=O)O

T1: full-length human GIPR with an N-terminal FLAG tag (human, UniProt P48546 22-466)
T1 sequence (looked up): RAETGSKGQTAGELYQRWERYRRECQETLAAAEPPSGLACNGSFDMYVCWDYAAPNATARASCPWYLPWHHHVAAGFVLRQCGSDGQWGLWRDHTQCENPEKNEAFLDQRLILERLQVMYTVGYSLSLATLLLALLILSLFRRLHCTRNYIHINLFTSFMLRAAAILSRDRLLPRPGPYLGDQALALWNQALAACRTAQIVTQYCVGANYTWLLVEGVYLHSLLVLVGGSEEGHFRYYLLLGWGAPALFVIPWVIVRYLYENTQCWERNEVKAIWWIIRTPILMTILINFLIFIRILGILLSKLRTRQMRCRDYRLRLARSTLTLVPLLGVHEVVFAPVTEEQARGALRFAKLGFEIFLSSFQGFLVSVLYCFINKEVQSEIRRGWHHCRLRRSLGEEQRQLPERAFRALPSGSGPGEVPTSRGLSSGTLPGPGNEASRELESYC

T2: full-length human GIPR with an N-terminal FLAG tag, overexpressed on HEK-293T cells (human, UniProt P48546 22-466)
T2 sequence (looked up): T1 sequence (looked up)


Assays:
[1] = Dog plasma protein binding (PPB); assay type: in vitro ADME; conditions: pH 7.4; fraction unbound; dog serum; read-out: Dog PPB (FUplasma)
How it was run: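 Fraction unbound (Fu,plasma) is given as a percentage. It was measured with the method and analysis of the human protein-binding protocol, but using dog serum in place of human serum.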

human GLP-1R = target: T3, human GLP-1R (Homo sapiens, UniProt P43220); assay: Human GLP1R agonist activity, intracellular cAMP accumulation; assay type: cell-based; conditions: HEK-293T cells overexpressing human GLP-1R, 1 hr, read-out: Human GLP1R cAMP EC50, HEK293T
T3 construct: HEK-293T cells overexpressing full-length human GLP-1R; FLAG (N); host or cells: HEK-293T
How it was run: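 cAMP accumulation is measured by HTRF after a 1 hr, room-temperature, dark exposure of thawed cells (4×10^5 cells/mL in Krebs Ringer buffer) to compound. Activity is scaled between DMSO alone as 0% and 1 nm GLP-1 as 100%.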

[2] = Pharmacokinetics in dog after IV and SC dosing; conditions: in vivo
Procedure: Pharmacokinetic (PK) were conducted in dog in order to determine the half-life after IV and SC dosing. The peptide was dissolved in 10% DMSO/0.09% Polysorbate/PBS pH 7.4 to a concentration of 3 nmol/mL and the animal were dose with a volume of 1 mL/kg SC or IV. Blood sample were collected at 0, 0.033, 0.083, 0.25, 0.5, 1, 2, 4, 6, 8, 12, 24, 48, 72, 96, 120, 168, 336 hours for IV dosing and 0.25, 0.5, 1, 2, 4, 6, 8, 12, 24, 48, 72, 96, 120, 168, 336 for SC dosing, EDTA-K2 was used as anticoagulant. The plasma concentration of the peptide was measured using LCMS. Allometric scaling of lipidated peptide pharmacokinetics including T1/2 and MRT is known in the art for rodent to dog and mini pig and to humans. […] See for example, Discovery and Development of Liraglutide and Semaglutide. Knudsen, L. B.; Lau, J. Frontiers in Endocrinology, 2019, vol 10, Article 155.

[3] = Human plasma protein binding (PPB); assay type: in vitro ADME
How it was run: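 Peptides spiked at 1000 nmol/L into pooled human K2-EDTA plasma adjusted to pH 7.4, incubated 30 min at 37 °C, then ultracentrifuged at ~450,000 g, 4 °C for 3 h. Fu derived from LC-MS/MS (MRM) peak area ratios, supernatant versus plasma.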

physchem = assay: physchem
How it was run: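 Solubility at pH 7.4 determined by stepwise addition of 200 mM phosphate buffer in 100 μL increments to 3 mg peptide, mixing briefly each time, until no insoluble material remained, then measured by liquid chromatography.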

dog plasma proteins = assay: plasma protein binding, ultracentrifugation, LC-MS/MS
human plasma proteins = assay: as above
[4] = target: T1, full-length human GIPR with an …; assay: cell-based or functional assay
[5] = target: full-length human GLP-1R with an N-terminal FLAG tag (human, UniProt P43220 24-463); assay: cell-based or functional assay
[6] = target: T2, full-length human GIPR with an …; assay: cell-based or functional assay
[7] = target: full-length human GLP-1R with an N-terminal FLAG tag, overexpressed on HEK-293T cells (human, UniProt P43220 24-463); assay: cell-based or functional assay

T3 sequence (P43220 24-463): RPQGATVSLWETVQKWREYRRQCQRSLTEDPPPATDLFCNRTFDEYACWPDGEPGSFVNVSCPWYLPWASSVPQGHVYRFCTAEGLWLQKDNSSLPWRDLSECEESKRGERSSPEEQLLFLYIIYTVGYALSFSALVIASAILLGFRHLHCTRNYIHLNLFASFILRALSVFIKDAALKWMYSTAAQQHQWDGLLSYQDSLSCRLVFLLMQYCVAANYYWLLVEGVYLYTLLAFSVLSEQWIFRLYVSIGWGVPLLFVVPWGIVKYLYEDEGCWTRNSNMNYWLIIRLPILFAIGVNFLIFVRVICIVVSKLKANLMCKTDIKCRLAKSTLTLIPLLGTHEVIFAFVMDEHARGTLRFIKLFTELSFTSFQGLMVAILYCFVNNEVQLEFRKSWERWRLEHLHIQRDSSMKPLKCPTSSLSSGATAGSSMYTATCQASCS

Row | Molecule | Dog PPB (FUplasma), fraction unbound in plasma (fraction unbound) (dog plasma proteins) | Human PPB (FUplasma), fraction unbound in plasma (fraction unbound) (human plasma proteins) | Human GIPR cAMP EC50, HEK293T [4] [nM] | Human GLP1R cAMP EC50, HEK293T [5] [nM] | also measured
1 | CC[C@H](C)[C@H](NC(=O)[C@H](Cc1ccccc1)NC(=O)[C@@H](NC(=O)CNC(=O)[C@H](CCC(=O)O)NC(=O)C(C)(C)NC(=O)[C@H](Cc1ccc(O)cc1)NC)[C@@H](C)O)C(=O)N[C@@H](CO)C(=O)N[C@@H](CC(=O)O)C(=O)N[C@@H](Cc1ccc(O)cc1)C(=O)N[C@@H](CO)C(=O)N[C@H](C(=O)NC(C)(C)C(=O)N[C@@H](CCCCNC(=O)CNC(=O)CNC(=O)CNC(=O)CNC(=O)CNC(=O)CCCCCCCCCCCCCCCCC(=O)O)C(=O)N[C@@H](CC(=O)O)C(=O)N[C@@H](CCCNC(=N)N)C(=O)NC(C)(C)C(=O)N[C@@H](C)C(=O)N[C@@H](CCC(N)=O)C(=O)NC(C)(C)C(=O)N[C@@H](CC(=O)O)C(=O)N[C@@H](Cc1ccccc1)C(=O)N[C@H](C(=O)N[C@@H](CC(N)=O)C(=O)N[C@@H](Cc1c[nH]c2ccccc12)C(=O)N[C@@H](CC(C)C)C(=O)N[C@@H](CC(C)C)C(=O)N[C@@H](C)C(=O)N[C@@H](CCC(N)=O)C(=O)N[C@@H](CCCNC(=N)N)C(=O)NCC(=O)O)C(C)C)[C@@H](C)CC [Compound 294, Me-Y-Aib-E-G-T-F-I-S-D-Y-S-I-Aib-Km-D-R-Aib-A-Q-Aib-D-F-V-N-W-L-L-A-Q-R-G-OH] | – | – | – | – | fraction unbound [1]: 0.0111; EC50 (human GLP-1R): 38.9 nM; half-life ([2]; IV 3 nmol/kg, read-out: IV T½ (converted)): 59 h; MRT last ([2]; SC 3 nmol/kg, read-out: SC MRT 0-last): 97 h; fraction unbound ([3]; both sexes, pH 7.4, fraction unbound, human plasma, 1000 nmol/L peptide, ultracentrifugation, read-out: Human PPB (FUplasma)): < 0.002; free unbound peptide in human plasma (in words) ([3]; judged for once per week (QW) dosing): optimum free unbound peptide; solubility (physchem; pH 7.4): ≥ 15 mg/mL; solubility (physchem; pH 7.4, aqueous buffer): ≥ 30 mg/mL
2 | [NMeY][Aib]EGTFISDYSIALDR[Aib]AQ[Aib]K([AEEA-AEEA-γGlu-γGlu-C18 diacid])FVNWLLAQRG-OH [Compound No. 37] | 0.0012 | 0.001 | 0.0005 | 44.7 | –
3 | [NMeY][Aib]EGTFISDYSI[Aib]LDR[Aib]AQ[Aib]K([2OEGgEgE-C18 diacid])FVNWLLAQRG-OH [Compound No. 72] | 0.0062 | 0.0036 | 0.0005 | 43.2 | –
4 | [NMeY][Aib]EGTFISDYSI[Aib]LDR[Aib]AQ[Aib]K([AEEA-AEEA-γGlu-γGlu-C17 diacid])FVNWLLAQRPSSGAPPPS-NH2 [Compound No. 13] | < 0.002 | < 0.002 | 0.0004 | 49 | –
5 | [NMeY][Aib]EGTFISDYSI[Aib]LDR[Aib]AQ[Aib]NFVNWLLAQK([AEEA-AEEA-γGlu-γGlu-C17 diacid])PSSGAPPPS-NH2 [Compound No. 16] | < 0.00116 | < 0.0012 | 0.0004 | 35.1 | –
6 | [NMeY][Aib]EGTFISDYSI[Aib]LDRK([AEEA-AEEA-γGlu-γGlu-C17 diacid])AQ[Aib]NFVNWLLAQRPSSGAPPPS-NH2 [Compound No. 15] | 0.0021 | 0.0017 | 0.0003 | 35.9 | –
7 | [NMeY][Aib]EGTFISDYSI[Aib]LDR[Aib]AQ[Aib]NFVNWLLAQK([AEEA-AEEA-γGlu-γGlu-C18 diacid])PSSGAPPPS-NH2 [Compound No. 27] | < 0.002 | 0.0013 | 0.0004 | 87.1 | –
8 | [NMeY][Aib]EGTFISDYSIALDR[Aib]AQ[Aib]K(2OEGgEgE‑C20 diacid)FVNWLLAQKG-OH [Compound No. 39] | 0.0015 | 0.0112 | 0.0017 | 13.2 | –
9 | [NMeY][Aib]EGTFISDYSIALDR[Aib]HQ[Aib]NFVNWLLAK([AEEA-AEEA-γGlu-γGlu-C18 diacid])R-NH2 [Compound No. 19] | 0.0005 | 0.0011 | – | – | –
10 | [NMeY][Aib]EGTFISDYSIALDR[Aib]AQ[Aib]K([2OEGgEgE-C17 diacid])FVNWLLAQR-NH2 [Compound No. 8] | 0.0016 | 0.0009 | 0.0003 | 41.4 | –
11 | [NMeY][Aib]EGTFISDYSIALDR[Aib]AQ[Aib]K([AEEA-AEEA-γGlu-γGlu-C18 diacid])FVNWLLAQKG-OH [Compound No. 41] | 0.0007 | < 0.002 | – | – | –
12 | [NMeY][Aib]EGTFISDYSIALDR[Aib]K([AEEA-AEEA-γGlu-γGlu-C17 diacid])Q[Aib]NFVNWLLAQSPSSGAPPPS-NH2 [Compound No. 11] | < 0.0024 | 0.0038 | 0.0003 | 1000 | –
13 | [NMeY][Aib]EGTFISDYSIALDR[Aib]AQ[Aib]K([AEEA-AEEA-γGlu-γGlu-C17 diacid])FVNWLLAQRG-OH [Compound No. 36] | 0.0034 | < 0.002 | 0.0007 | 87.1 | –
14 | [NMeY][Aib]EGTFISDYSIALDR[Aib]K([AEEA-AEEA-γGlu-γGlu-C18 diacid])Q[Aib]NFVNWLLAQSPSSGAPPPS-NH2 [Compound No. 293] | < 0.002 | < 0.002 | – | – | Human GIPR cAMP EC50, HEK293T [6]: 0.0004 nM; Human GLP1R cAMP EC50, HEK293T [7]: 129 nM
